Data published in US20060121056A1.

Molecular target: SNAP-25 (rat) (UniProt P60881)

Substance: WGA-LHN/A conjugate (enzyme)
- IC50, inhibition of glycine release from eSC neurons (3 days) (microgrammes/ml): 0.06
- IC50, inhibition of substance P release from eDRG neurons (3 days) (microgrammes/ml): 0.34
